Key:
[1] = test system: 2LTRZFP-GFP (designed six-finger zinc finger protein fused to GFP); assay: BLI; conditions: BLI (BLItz, SA tips): 10 mM Tris-HCl pH 7.5, 90 mM KCl, 1 mM MgCl2, 90 uM ZnSO4, 5 mM DTT, 0.5 mM PMSF, temperature not stated; IN: 1:5 IN reaction buffer …
[2] = molecular target: HIV-1 integrase (IN) (HIV-1) (UniProt P12497); assay: BLI; conditions: BLI (BLItz, SA tips): 10 mM Tris-HCl pH 7.5, 90 mM KCl, 1 mM MgCl2, 90 uM ZnSO4, 5 mM DTT, 0.5 mM PMSF, temperature not stated; IN: 1:5 IN reaction buffer …
[3] = test system: 2LTRZFP-GFP (designed six-finger zinc finger protein fused to GFP); assay: competition BLI; conditions: BLI (BLItz, SA tips): 10 mM Tris-HCl pH 7.5, 90 mM KCl, 1 mM MgCl2, 90 uM ZnSO4, 5 mM DTT, 0.5 mM PMSF, temperature not stated; IN: 1:5 IN reaction buffer …
[4] = test system: 2LTRZFP-GFP (designed six-finger zinc finger protein fused to GFP); assay: competition ELISA; conditions: BLI (BLItz, SA tips): 10 mM Tris-HCl pH 7.5, 90 mM KCl, 1 mM MgCl2, 90 uM ZnSO4, 5 mM DTT, 0.5 mM PMSF, temperature not stated, IN: 1:5 IN reaction buffer …

Sequence	Kd [1]	Kd [2]	binding signal (nm BLI signal (0.55 without 2LTRZFP-GFP)) [2]	binding signal (nm BLI signal (1.2 without competitor)) [3]	binding signal [4]	inhibition of binding to immobilized ds2LTR ([4]; 2 uM dsNeg as competitor against immobilized ds2LTR, OD 1.0 vs 1.3 uninhibited)
AAATCTCTAGCAGTACTGGATGGGCTAATT (double strand) [ds2LTR (30 bp HIV-1 2-LTR circle junction)]	40 nM	75 nM	0.47	0.45	62 % inhibition	
TGACAGTGCTAGCGTATCATCTAGTCGACG (double strand) [dsNeg (30 bp irrelevant DNA)]				1		22 % inhibition
